Biological target: vimentin (rat (endogenous in glioma C6 cells)) (UniProt P31000)
Assay: co-sedimentation

Chain of vimentin (rat (endogenous in glioma C6 cells)) (P31000 whole entry): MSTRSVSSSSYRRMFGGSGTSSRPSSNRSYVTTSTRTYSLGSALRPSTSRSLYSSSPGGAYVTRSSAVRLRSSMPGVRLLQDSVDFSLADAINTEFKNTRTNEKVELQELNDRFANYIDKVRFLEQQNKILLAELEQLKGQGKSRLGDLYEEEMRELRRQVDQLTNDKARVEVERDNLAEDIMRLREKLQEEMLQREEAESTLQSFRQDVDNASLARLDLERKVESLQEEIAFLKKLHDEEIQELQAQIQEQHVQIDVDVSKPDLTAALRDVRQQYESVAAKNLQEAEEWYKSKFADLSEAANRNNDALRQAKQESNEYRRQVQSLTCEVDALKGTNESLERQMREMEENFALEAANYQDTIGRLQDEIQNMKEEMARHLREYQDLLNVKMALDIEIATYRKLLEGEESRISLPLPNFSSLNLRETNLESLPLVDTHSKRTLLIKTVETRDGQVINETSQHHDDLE

**Q.** plectin (Mr 300,000), P30427 1-4687 was tested. Which mass ratio of plectin to vimentin in the pelleted aggregates did it give?
**A.** Its mass ratio of plectin to vimentin in the pelleted aggregates is 0.25.

**Q.** What about the mass ratio plectin/vimentin in the pellet P1 (round 1) of the same substance?
**A.** Its mass ratio plectin/vimentin in the pellet P1 (round 1) is 0.28.

**Q.** What about the mass ratio plectin/vimentin in the pellet P2 (round 2) of the same substance?
**A.** The mass ratio plectin/vimentin in the pellet P2 (round 2) was 0.23.

**Q.** And the percent of the total plectin recovered in the pellet of the mixture?
**A.** Its percent of the total plectin recovered in the pellet of the mixture is 27%.

**Q.** And the percent of the total vimentin recovered in the pellet of the mixture?
**A.** Its percent of the total vimentin recovered in the pellet of the mixture is 32%.
